In patent EP4257134A2 (Immunomedics, Inc., dated 2023):
Each block holds one molecule with its values, some of them ahead of it.

Key:
[1] = target: CD74 (invariant chain, Ii) (human) (UniProt P04233); assay: cell binding to antigen-positive cells (cell line not given)
[2] = target: CD74 (invariant chain, Ii) (human) (UniProt P04233); assay: flow cytometry, surface only; Hep-G2 cells
[3] = target: CD74 (invariant chain, Ii) (human) (UniProt P04233); assay: flow cytometry, surface and cytoplasmic (permeabilized cells); NCI-N87 (background 6)
[4] = target: CD74 (invariant chain, Ii) (human) (UniProt P04233); assay: flow cytometry, surface only; HuH-7 cells (background 5, GAH-FITC only)
[5] = target: CD74 (invariant chain, Ii) (human) (UniProt P04233); assay: flow cytometry, surface only; NCI-N87 cells
[6] = target: CD74 (invariant chain, Ii) (human) (UniProt P04233); assay: flow cytometry, surface only; NCI-N87 cells (background 4, GAH-FITC only)
[7] = target: CD74 (invariant chain, Ii) (human) (UniProt P04233); assay: flow cytometry, surface only; Raji cells (background 3, GAH-FITC only)
[8] = target: CD74 (invariant chain, Ii) (human) (UniProt P04233); assay: flow cytometry, surface only; A-375 cells (background 3, GAH-FITC only)
[9] = target: CD74 (invariant chain, Ii) (human) (UniProt P04233); assay: flow cytometry, surface only; Raji cells
[10] = target: CD74 (invariant chain, Ii) (human) (UniProt P04233); assay: flow cytometry, surface and cytoplasmic (permeabilized cells); HuH-7 (background 4)
[11] = target: CD74 (invariant chain, Ii) (human) (UniProt P04233); assay: flow cytometry, surface only; Hep-G2 cells (background 6, GAH-FITC only)
[12] = target: CD74 (invariant chain, Ii) (human) (UniProt P04233); assay: flow cytometry, surface and cytoplasmic (permeabilized cells); Hs746T (background 5)
[13] = target: CD74 (invariant chain, Ii) (human) (UniProt P04233); assay: flow cytometry, surface and cytoplasmic (permeabilized cells); Capan-1 (background 5)
[14] = target: CD74 (invariant chain, Ii) (human) (UniProt P04233); assay: flow cytometry, surface and cytoplasmic (permeabilized cells); NCI-N87
[15] = target: CD74 (invariant chain, Ii) (human) (UniProt P04233); assay: flow cytometry, surface and cytoplasmic (permeabilized cells); A-375 (background 6)
[16] = target: CD74 (invariant chain, Ii) (human) (UniProt P04233); assay: flow cytometry, surface and cytoplasmic (permeabilized cells); Raji (background 5)
[17] = target: CD74 (invariant chain, Ii) (human) (UniProt P04233); assay: flow cytometry, surface and cytoplasmic (permeabilized cells); Hep-G2 (background 5)
[18] = target: CD74 (invariant chain, Ii) (human) (UniProt P04233); assay: flow cytometry, surface and cytoplasmic (permeabilized cells); A-375
[19] = target: CD74 (invariant chain, Ii) (human) (UniProt P04233); assay: flow cytometry, surface and cytoplasmic (permeabilized cells); Hep-G2
[20] = target: CD74 (invariant chain, Ii) (human) (UniProt P04233); assay: flow cytometry, surface only; Hs746T cells (background 8, GAH-FITC only)
[21] = target: CD74 (invariant chain, Ii) (human) (UniProt P04233); assay: flow cytometry, surface and cytoplasmic (permeabilized cells); Hs746T
[22] = target: CD74 (invariant chain, Ii) (human) (UniProt P04233); assay: flow cytometry, surface and cytoplasmic (permeabilized cells); HuH-7
[23] = target: CD74 (invariant chain, Ii) (human) (UniProt P04233); assay: flow cytometry, surface only; Capan-1 cells (background 12, GAH-FITC only)
[24] = target: CD74 (invariant chain, Ii) (human) (UniProt P04233); assay: flow cytometry, surface only; Capan-1 cells
[25] = target: CD74 (invariant chain, Ii) (human) (UniProt P04233); assay: flow cytometry, surface and cytoplasmic (permeabilized cells); Raji
[26] = target: CD74 (invariant chain, Ii) (human) (UniProt P04233); assay: flow cytometry, surface only; HuH-7 cells
[27] = target: CD74 (invariant chain, Ii) (human) (UniProt P04233); assay: flow cytometry, surface only; A-375 cells
[28] = target: CD74 (invariant chain, Ii) (human) (UniProt P04233); assay: flow cytometry, surface only; Hs746T cells
[29] = target: CD74 (invariant chain, Ii) (human) (UniProt P04233); assay: flow cytometry, surface and cytoplasmic (permeabilized cells); Capan-1
[30] = target: CD20 (human) (UniProt P11836); assay: flow cytometry with the unconjugated specific antibody, FITC goat anti-human IgG; Jeko-1 cells (background 6.5)
[31] = target: CD20 (human) (UniProt P11836); assay: flow cytometry with the unconjugated specific antibody, FITC goat anti-human IgG; Daudi cells (background 5.9)
[32] = target: CD20 (human) (UniProt P11836); assay: flow cytometry with the unconjugated specific antibody, FITC goat anti-human IgG; Raji cells (background 6.8)
[33] = target: CD20 (human) (UniProt P11836); assay: flow cytometry with the unconjugated specific antibody, FITC goat anti-human IgG; REH cells (background 4.1)
[34] = target: CD20 (human) (UniProt P11836); assay: flow cytometry with the unconjugated specific antibody, FITC goat anti-human IgG; Ramos cells (background 4.1)
[35] = target: CD20 (human) (UniProt P11836); assay: flow cytometry with the unconjugated specific antibody, FITC goat anti-human IgG; MN-60 cells (background 5.8)
[36] = target: CD20 (human) (UniProt P11836); assay: flow cytometry with the unconjugated specific antibody, FITC goat anti-human IgG; 697 cells (background 4.2)
[37] = target: CD20 (human) (UniProt P11836); assay: flow cytometry with the unconjugated specific antibody, FITC goat anti-human IgG; RS4;11 cells (background 4.1)
[38] = target: CD20 (human) (UniProt P11836); assay: flow cytometry with the unconjugated specific antibody, FITC goat anti-human IgG; WSU-FSCCL cells (background 4.9)
[39] = target: Human trophoblast cell-surface antigen (Trop-2) (human) (UniProt P09758); assay: cell binding assay on Trop-2-expressing cells
[40] = target: CD22 (human) (UniProt P20273); assay: flow cytometry with the unconjugated specific antibody, FITC goat anti-human IgG; Jeko-1 cells (background 6.5)
[41] = target: CD22 (human) (UniProt P20273); assay: flow cytometry with the unconjugated specific antibody, FITC goat anti-human IgG; Daudi cells (background 5.9)
[42] = target: CD22 (human) (UniProt P20273); assay: flow cytometry with the unconjugated specific antibody, FITC goat anti-human IgG; Raji cells (background 6.8)
[43] = target: CD22 (human) (UniProt P20273); assay: flow cytometry with the unconjugated specific antibody, FITC goat anti-human IgG; REH cells (background 4.1)
[44] = target: CD22 (human) (UniProt P20273); assay: flow cytometry with the unconjugated specific antibody, FITC goat anti-human IgG; Ramos cells (background 4.1)
[45] = target: CD22 (human) (UniProt P20273); assay: flow cytometry with the unconjugated specific antibody, FITC goat anti-human IgG; MN-60 cells (background 5.8)
[46] = target: CD22 (human) (UniProt P20273); assay: flow cytometry with the unconjugated specific antibody, FITC goat anti-human IgG; 697 cells (background 4.2)
[47] = target: CD22 (human) (UniProt P20273); assay: flow cytometry with the unconjugated specific antibody, FITC goat anti-human IgG; RS4;11 cells (background 4.1)
[48] = target: CD22 (human) (UniProt P20273); assay: flow cytometry with the unconjugated specific antibody, FITC goat anti-human IgG; WSU-FSCCL cells (background 4.9)
[49] = target: CEACAM6 (human) (UniProt P40199); assay: flow cytometry, surface; HuH-7 cells (staining antibody not given)
[50] = target: CEACAM6 (human) (UniProt P40199); assay: flow cytometry; Hep-G2 cells
[51] = target: CEACAM6 (human) (UniProt P40199); assay: flow cytometry, surface; NCI-N87 cells (staining antibody not given)
[52] = target: T1, Human trophoblast cell-surface antigen (Trop-2) (human, UniProt P09758 27-323); assay: cell-based or functional assay
T1 sequence (looked up): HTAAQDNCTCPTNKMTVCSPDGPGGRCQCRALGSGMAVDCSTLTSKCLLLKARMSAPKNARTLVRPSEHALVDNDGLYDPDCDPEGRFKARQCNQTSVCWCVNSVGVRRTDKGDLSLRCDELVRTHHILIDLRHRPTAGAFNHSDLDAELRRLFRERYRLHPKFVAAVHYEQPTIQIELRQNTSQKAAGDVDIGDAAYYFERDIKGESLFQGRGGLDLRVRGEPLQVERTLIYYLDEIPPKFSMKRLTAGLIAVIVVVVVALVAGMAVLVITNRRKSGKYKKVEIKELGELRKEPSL

CD74 (invariant chain, Ii) (human), sequence (P04233 whole entry, change not shown): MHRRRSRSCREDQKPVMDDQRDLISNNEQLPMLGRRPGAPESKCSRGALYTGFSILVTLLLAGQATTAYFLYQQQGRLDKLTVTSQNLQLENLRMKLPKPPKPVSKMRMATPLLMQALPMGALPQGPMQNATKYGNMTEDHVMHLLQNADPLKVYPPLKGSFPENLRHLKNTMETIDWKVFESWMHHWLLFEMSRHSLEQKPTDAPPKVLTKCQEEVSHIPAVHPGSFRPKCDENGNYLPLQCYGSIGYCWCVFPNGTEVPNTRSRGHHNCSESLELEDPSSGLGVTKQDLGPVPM
CEACAM6 (human), sequence (P40199 35-320): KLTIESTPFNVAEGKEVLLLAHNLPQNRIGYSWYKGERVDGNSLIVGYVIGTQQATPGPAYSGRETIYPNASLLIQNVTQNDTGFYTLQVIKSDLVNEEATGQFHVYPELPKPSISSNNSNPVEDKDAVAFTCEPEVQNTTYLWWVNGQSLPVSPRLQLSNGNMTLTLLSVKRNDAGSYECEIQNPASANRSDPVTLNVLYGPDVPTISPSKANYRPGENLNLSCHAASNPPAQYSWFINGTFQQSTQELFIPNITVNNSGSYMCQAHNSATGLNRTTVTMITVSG
CD20 (human), sequence (P11836 whole entry): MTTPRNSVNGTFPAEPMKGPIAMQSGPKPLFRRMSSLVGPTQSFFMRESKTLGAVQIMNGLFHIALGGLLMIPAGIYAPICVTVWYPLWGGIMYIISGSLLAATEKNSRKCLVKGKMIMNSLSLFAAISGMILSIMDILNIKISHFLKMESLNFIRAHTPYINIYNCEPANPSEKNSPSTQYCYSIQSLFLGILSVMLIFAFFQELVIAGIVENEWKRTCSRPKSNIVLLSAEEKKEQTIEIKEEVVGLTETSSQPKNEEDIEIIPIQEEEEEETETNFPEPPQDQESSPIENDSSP

Molecule: Milatuzumab-CL2A-SN-38 (antibody)
- Kd [1]: 0.59 nM

Molecule: Veltuzumab (hA20, humanized anti-CD20 IgG1, unconjugated) (antibody)
- Median fluorescence [30]: 605
- Median fluorescence [31]: 815
- Median fluorescence [32]: 422
- Median fluorescence [33]: 12.3
- Median fluorescence [34]: 620
- Median fluorescence [35]: 21.5
- Median fluorescence [36]: 6.9
- Median fluorescence [37]: 3.7
- Median fluorescence [38]: 97.4

Molecule: Milatuzumab-CL2E-SN-38 (antibody)
- Kd [1]: 0.8 nM

Molecule: hRS7-CL2A-SN-38 (antibody)
- Kd [39]: 1.2 nM

Molecule: hMN-15 (humanized anti-CEACAM6 IgG1, unconjugated) (antibody)
- MFI [49]: 81
- MFI [50]: 175
- MFI [51]: 1120

B2: hRS7 IgG (humanized RS7 anti-Trop-2 antibody, unconjugated) (antibody, V domains shown)
VH: QVQLQQSGSELKKPGASVKVSCKASGYTFTNYGMNWVKQAPGQGLKWMGWINTYTGEPTYTDDFKGRFAFSLDTSVSTAYLQISSLKADDTAVYFCARGGFGSSYWYFDVWGQGSLVTVSS
VL: DIQLTQSPSSLSASVGDRVSITCKASQDVSIAVAWYQQKPGKAPKLLIYSASYRYTGVPDRFSGSGSGTDFTLTISSLQPEDFAVYYCQQHYITPLTFGAGTKVEIKR
- ADCC, specific lysis of BxPC-3 target cells by PBMCs (effector to target ratio 100:1; antibody at 33.3 nM) [52]: 8.5%

Second part, the molecule after the results:

- MFI Ratio hLL1:bkgd [2]: 1.5
- MFI [3]: 220
- MFI [4]: 8
- MFI Ratio hLL1:bkgd [5]: 1.3
- MFI [6]: 5
- MFI [7]: 59
- MFI [8]: 16
- MFI Ratio hLL1:bkgd [9]: 19.6
- MFI [10]: 114
- MFI [11]: 9
- MFI [12]: 144
- Kd [1]: 0.77 nM
- MFI [13]: 248
- MFI Ratio hLL1:bkgd [14]: 36.7
- MFI [15]: 185
- MFI [16]: 143
- MFI [17]: 156
- MFI Ratio hLL1:bkgd [18]: 30.8
- MFI Ratio hLL1:bkgd [19]: 31.2
- MFI [20]: 17
- MFI Ratio hLL1:bkgd [21]: 28.8
- MFI Ratio hLL1:bkgd [22]: 28.5
- MFI [23]: 22
- MFI Ratio hLL1:bkgd [24]: 1.8
- MFI Ratio hLL1:bkgd [25]: 28.6
- MFI Ratio hLL1:bkgd [26]: 1.6
- MFI Ratio hLL1:bkgd [27]: 5.3
- MFI Ratio hLL1:bkgd [28]: 2.1
- MFI Ratio hLL1:bkgd [29]: 49.6
Molecule: Milatuzumab (hLL1, humanized anti-CD74 IgG1, unconjugated) (antibody)

- Median fluorescence [40]: 11.2
- Median fluorescence [41]: 145
- Median fluorescence [42]: 45.9
- Median fluorescence [43]: 22.9
- Median fluorescence [44]: 40.8
- Median fluorescence [45]: 10.3
- Median fluorescence [46]: 16
- Median fluorescence [47]: 23.3
- Median fluorescence [48]: 7.7
Molecule: Epratuzumab (hLL2, humanized anti-CD22 IgG1, unconjugated) (antibody)

- Kd [39]: 1.2 nM
B1: hRS7-CL2-SN-38 (antibody, INN chains, looked up, V domains shown, part only)
VH: B2 VH
VL: DIQLTQSPSSLSASVGDRVSITCKASQDVSIAVAWYQQKPGKAPKLLIYSASYRYTGVPDRFSGSGSGTDFTLTISSLQPEDFAVYYCQQHYITPLTFGAGTKVEIK
modifications: SN-38 via CL2 linker
